Residue numbers refer to the chain shown, from its start. Names may count otherwise. One block for each binder: values may come before it.
How the values were obtained:
human FcγRI = target: T1, human FcγRI (human, UniProt P12314 16-374); assay: flow cytometry, FcγR+ HEK293 cells
T1 construct: whole, on cells; also called FcγR1
Experimental: (§1) Binding of various IgG4 mutants to FcγRs was determined by flow cytometry. In brief, a series of HEK293 transfectants expressing human FcγRs were established. These transfectants expressed FcγRI, FcγRIIA, FcγRIIB or FcγRIIIA Multi-subunit FcγRs (i.e., FcγR1 and FcγRIIIA) were co-expressed with FcRγ. Polymorphic variants (i.e., FcγRIIA H131 and R131, FcγRIIIA F158 and V158) were also included.

human FcγRIIIA (F158) = target: T2, human FcγRIIIA (F158) (human, UniProt P08637 17-254); assay: flow cytometry, FcγR+ HEK293 cells
T2 construct: whole, on cells
Experimental: as §1

human FcγRIIA (H131) = target: T3, human FcγRIIA (H131) (human, UniProt P12318 34-317); assay: flow cytometry, FcγR+ HEK293 cells
T3 construct: whole, on cells
T3 sequence (looked up): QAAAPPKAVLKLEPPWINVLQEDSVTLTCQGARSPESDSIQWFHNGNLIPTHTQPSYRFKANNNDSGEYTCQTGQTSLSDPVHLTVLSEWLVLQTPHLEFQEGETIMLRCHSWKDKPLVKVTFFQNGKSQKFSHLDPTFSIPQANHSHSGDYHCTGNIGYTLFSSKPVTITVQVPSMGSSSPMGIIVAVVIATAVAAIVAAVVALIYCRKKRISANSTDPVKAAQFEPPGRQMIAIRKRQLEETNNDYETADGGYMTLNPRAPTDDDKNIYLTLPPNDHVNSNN
Experimental: as §1

human FcγRIIA (R131) = target: T4, human FcγRIIA (R131) (human, UniProt P12318 34-317); assay: flow cytometry, FcγR+ HEK293 cells
T4 construct: whole, on cells
T4 sequence (looked up): T3 sequence (looked up) with H134R
Experimental: as §1

[1] = target: P3Z chimeric PD-1 receptor (human); assay: cell-based or functional assay
[2] = target: P3Z chimeric PD-1 receptor (human); assay: cell-based or functional assay; remark: listed apart in the source
[3] = target: T5, human PD-1 expressed on cells (human, UniProt Q15116 25-288); assay: cell-based or functional assay
[4] = target: P3Z chimeric PD-1 receptor (human); assay: cell-based or functional assay; remark: listed apart in the source
[5] = target: T5, human PD-1 expressed on cells; assay: cell-based or functional assay; remark: listed apart in the source
[6] = target: T5, human PD-1 expressed on cells; assay: cell-based or functional assay; remark: listed apart in the source
[7] = target: T5, human PD-1 expressed on cells; assay: cell-based or functional assay; remark: listed apart in the source
[8] = target: T5, human PD-1 expressed on cells; assay: FACS on PD-1-expressing cells, goat anti-mouse IgG detection
[9] = target: T5, human PD-1 expressed on cells; assay: cell-based or functional assay; remark: listed apart in the source
[10] = target: T6, wild-type human PD-1 recombinant protein (PD-1/His or PD-1/Fc, not said which) (human, UniProt Q15116 21-168); assay: ELISA on coated recombinant PD-1; cell carries the * mark (Fab version); ELISA cell marked *
T6 construct: also called WT PD-1

[11] = target: T5, human PD-1 expressed on cells; assay: FACS on PD-1-expressing cells
PD-1-EC/His = target: T7, PD-1-EC/His (human, UniProt Q15116 21-168); assay: SPR (BIAcore T-200), human PD-1/His coupled to CM5 chip, Fab injected
T7 construct: AA 1-168 includes the signal peptide; also called PD-1/His; human PD-1/His
T7 sequence (Q15116 21-168): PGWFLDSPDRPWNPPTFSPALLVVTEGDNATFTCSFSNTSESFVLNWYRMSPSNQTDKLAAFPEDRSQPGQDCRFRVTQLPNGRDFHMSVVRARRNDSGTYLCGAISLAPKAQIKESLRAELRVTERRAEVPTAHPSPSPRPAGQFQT
Experimental: For affinity determinations of anti-PD-1 Fabs, SPR assays were used with the BIAcore™ T-200 instrument (GE Life Sciences). […] Association rates ($kon$) and dissociation rates ($koff$) were calculated using the one-to-one Langmuir binding model (BIA Evaluation Software, GE Life Sciences). The equilibrium dissociation constant (K_d) was calculated as the ratio $koff/kon$.

P3Z chimeric PD-1 receptor (human), sequence (chain, as listed by the source mutant limits assumed): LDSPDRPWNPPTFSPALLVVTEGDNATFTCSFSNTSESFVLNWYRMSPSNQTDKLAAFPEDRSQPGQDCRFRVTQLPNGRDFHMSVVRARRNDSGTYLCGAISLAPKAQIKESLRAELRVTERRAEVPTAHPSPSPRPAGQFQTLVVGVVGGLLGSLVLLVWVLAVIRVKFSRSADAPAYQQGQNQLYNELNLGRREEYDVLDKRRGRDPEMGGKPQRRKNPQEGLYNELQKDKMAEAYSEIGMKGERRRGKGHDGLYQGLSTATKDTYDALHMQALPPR
T5 sequence (Q15116 25-288): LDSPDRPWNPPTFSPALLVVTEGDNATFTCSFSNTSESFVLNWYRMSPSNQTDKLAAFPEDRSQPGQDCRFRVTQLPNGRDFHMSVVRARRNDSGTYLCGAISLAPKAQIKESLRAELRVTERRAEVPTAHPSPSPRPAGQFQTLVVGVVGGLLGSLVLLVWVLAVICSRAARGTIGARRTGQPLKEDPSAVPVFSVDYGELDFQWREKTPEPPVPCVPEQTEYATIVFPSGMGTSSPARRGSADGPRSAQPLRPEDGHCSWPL
T2 sequence (P08637 17-254): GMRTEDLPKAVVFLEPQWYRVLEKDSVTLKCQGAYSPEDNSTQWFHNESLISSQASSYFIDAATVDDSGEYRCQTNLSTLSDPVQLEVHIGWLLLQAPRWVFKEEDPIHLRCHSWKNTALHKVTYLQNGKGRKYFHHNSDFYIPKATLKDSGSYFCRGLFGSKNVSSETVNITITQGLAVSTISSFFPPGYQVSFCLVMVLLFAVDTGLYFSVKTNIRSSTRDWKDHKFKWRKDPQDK
T1 sequence (P12314 16-374): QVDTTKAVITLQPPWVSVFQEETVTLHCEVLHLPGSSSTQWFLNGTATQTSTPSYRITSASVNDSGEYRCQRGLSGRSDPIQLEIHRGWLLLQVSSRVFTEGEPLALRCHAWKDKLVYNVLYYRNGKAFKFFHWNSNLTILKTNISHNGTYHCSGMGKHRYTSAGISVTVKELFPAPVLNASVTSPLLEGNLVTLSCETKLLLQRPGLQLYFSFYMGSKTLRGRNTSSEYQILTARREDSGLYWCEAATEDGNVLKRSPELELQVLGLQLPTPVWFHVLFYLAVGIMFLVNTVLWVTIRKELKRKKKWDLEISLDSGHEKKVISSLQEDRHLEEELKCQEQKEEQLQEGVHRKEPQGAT
T6 sequence (Q15116 21-168 limits assumed): as the sequence (Q15116 21-168) above

B1: hu317-4B6/IgG4mt6 (antibody)
heavy: QVQLQESGPGLVKPSETLSLTCTVSGFSLTSYGVHWIRQPPGKGLEWIGVIYADGSTNYNPSLKSRVTISKDTSKNQVSLKLSSVTAADTAVYYCARAYGNYWYIDVWGQGTTVTVSSASTKGPSVFPLAPCSRSTSESTAALGCLVKDYFPEPVTVSWNSGALTSGVHTFPAVLQSSGLYSLSSVVTVPSSSLGTKTYTCNVDHKPSNTKVDKRVESKYGPPCPPCPAPPVAGGPSVFLFPPKPKDTLMISRTPEVTCVVVAVSQEDPEVQFNWYVDGVEVHNAKTKPREEQFNSTYRVVSVLTVLHQDWLNGKEYKCKVSNKGLPSSIEKTISKAKGQPREPQVYTLPPSQEEMTKNQVSLTCLVKGFYPSDIAVEWESNGQPENNYKTTPPVLDSDGSFFLYSRLTVDKSRWQEGNVFSCSVMHEALHNHYTQKSLSLSLGK
VL: DIVMTQSPDSLAVSLGERATINCKSSESVSNDVAWYQQKPGQPPKLLINYAFHRFTGVPDRFSGSGYGTDFTLTISSLQAEDVAVYYCHQAYSSPYTFGQGTKLEIK
notes: Light chain constant region not restated for this format; copies: 2 + 2
MFI (human FcγRI): 1 MFI

B2: hu317-1/IgG4mt6 (antibody)
heavy: B1 heavy with I48L, Y52W, D54G, V67L, T73N, N76S, L82M
VL: B1 VL with S25A, E27Q, Q100G
notes: as for B1
MFI (human FcγRIIIA (F158)): 0.9 MFI
MFI (human FcγRIIA (H131)): 1 MFI
MFI (human FcγRIIA (R131)): 0.8 MFI

B5: hu326-3B1 (antibody, V domains shown)
VH: QVQLVQSGSELKKPGASVKVSCKASGYTFTNYGMNWVRQAPGQGLKWMGWINNNNGEPTYAQDFRGRFVFSLDTSASTAYLQISSLKTEDTAVYYCARDVMDYWGQGTLVTVSS
VL: DIVLTQSPASLAVSPGQRATITCRASESVDNYGYSFMHWYQQKPGQPPKLLIYRASNLESGVPARFSGSGSRTDFTLTINPVEANDTANYYCQQSKEYPTFGGGTKVEIK
notes: Humanized mAb
EC50 [11]: 0.165 µg/mL

B6: hu326-3G1 Fab (Fab, V domains shown)
VH: B5 VH with S9P
VL: B5 VL
notes: Fab: VH on human IgG2 CH1 (C232S, C233S, Kabat) with C-terminal c-Myc-His8 tag
Kd (PD-1-EC/His): 1 nM

Now from value to binder, other results behind:

Inhibition of IL-2 secretion, IC50 (HuT78/P3Z + HEK293/PD-L1) [1]: 0.083 µ/ml
Inhibition of IL-2 secretion, IC50 (HuT78/P3Z + HEK293/PD-L2) [2]: 0.02 µg/mL
IFN-γ secreted, EC50 (NK92MI/PD-1 + SK-MES-1/PD-L1) [3]: 0.4 µg/mL
Assay-2 IL-2 release, IC50 (HuT78/P3Z + HEK293/PD-L1) [4]: 0.11 µg/mL
Assay-2 IL-2 release, Max inhibition (HuT78/P3Z + HEK293/PD-L1) [4]: 99.5%
Assay-1 IL-2 release, EC50 (HuT78/PD-1 + HEK293/OS8/PD-L1) [5]: 0.11 µg/mL
Assay-1 IL-2 release, Top line (HuT78/PD-1 + HEK293/OS8/PD-L1) [5]: 346 pg/mL
IL-2 release, EC50 (HuT78/PD-1 + HEK293/OS8/PD-L2) [7]: 0.032 µg/mL
EC50 [8]: 0.11 µg/mL
IL-2 release, EC50 (HuT78/PD-1 + HEK293/OS8/PD-L1) [9]: 0.083 µg/mL
B3: murine mAb 317 (antibody, V domains shown)
VH: QVQLKESGPGLVAPSKNLSITCTVSGFSLTSYGVHWIRQPPGKGLEWLGVIWAGGSTNYNSALMSRLSISKDNSRSQVFLRMNSLQTDDTAMYYCARAYGNYWYIDVWGAGTTVTVSS
VL: DIVMTQTPKFLLVSAGDRVTITCKASQSVSNDVAWYQQKPGQSPKLLINYAFHRFTGVPDRFTGSGYGTDFIFTISTVQAEDLAVYFCHQAYSSPYTFGGGTKLEMK
notes: Murine hybridoma antibody; also called mu317
Cytotoxicity of NK92MI/PD-1 cells against SK-MES-1/PD-L1, EC50 [6]: 0.5 µg/mL

EC50 [10]: 0.091 µg/mL
B4: hu326-4A3 Fab (Fab, V domains shown)
VH: B5 VH with G56A
VL: B5 VL with R72G, N85E
notes: Fab: VH on human IgG2 CH1 (C232S, C233S, Kabat) with C-terminal c-Myc-His8 tag; also called hu326-4A3 (Fab version)
